Paper PMC10015101

Key:
[1] = molecular target: Rf1 soluble spike ectodomain, stabilised (2P, GSAS linker, T4 fibritin trimerization motif) (bat sarbecovirus Rf1 | bacteriophage T4) (UniProt Q0QDZ0); test: SEC
[2] = molecular target: SARS-CoV-1 soluble spike ectodomain, stabilised (2P, GSAS linker, T4 fibritin trimerization motif) (SARS-CoV-1 | bacteriophage T4) (UniProt P59594); test: SEC

Row | Substance | stoichiometry N [1] | stoichiometry N [2]
1 | Rf1 soluble spike ectodomain, stabilised (2P, GSAS linker, T4 fibritin trimerization motif) (from UniProt Q0QDZ0 1-1176) (domain or fragment) | 3 | 
2 | SARS-CoV-1 soluble spike ectodomain, stabilised (2P, GSAS linker, T4 fibritin trimerization motif) (from UniProt P59594 14-1190) (domain or fragment) |  | 3
